Measured values: article PMC2109139

Target: subunit of the Mo-Fe protein from Azotobacter vinelandii nitrogenase (Azotobacter vinelandii (strain OP)) (UniProt P07328)
Test: electron microscopy

stoichiometry N: 4
Substance: subunit of the Mo-Fe protein from Azotobacter vinelandii nitrogenase (from UniProt P07328 1-492) (natural protein)
